Here are results for twelve sequences from a protein production outcome set (Wang et al. 2014).

This series in a line: label from the status in PepcDB records.
Regarding “MAMNEIALFKGVRIQPYQKYIDFMFASVLAFIFLVYRIYILFIDYKSVNKKLDILTLFAYFKPHLLYLLIGTAIIFVICKLIAQFLIRFKTKDLAEMIETQGFHNRTVIKKTTEYIPIDYKQTEYDYYPTMFYKRGKKSFVIHIKKDGSRFQDNYLELETIIEPMFNSELVEKKHIGRYLRYEFMPLKYKKRIVMNGEQESNTIFYDTKIAITHQITWDFVKAPHGLVTGITGGGKTYFLFYVIRELFRRHSEVRLLDPKVSDLSFMKRVIGDDKVADTKGQILKQLREANNEMEERFRLMNDSSDYKIGNDFRNFDMRPYFIIFDEVTAFTSTLDKKELQEMNDYLINIIMKGRQAGVFMFLTAQRPDADVIKGNVRDQLGLRVSLGNLSNDGYRMTFGQTDKEFQTIHDSDIGRGYISILGQYNEPILFDAPLMEQYDFVEDVKQILNKE”, the protein production result is “failed”.

Regarding “MAMVASVSMAFVLVFCTILLFHFVQQSRFTTATQLESIARSVREPLSAAILKADIPEAEAILSRIQPAGIVSRADVVLPNQFQALRMRFIPERPVPVTVTRLFELPVQISLPIYSLERPANPQPLAYLVLQADSYRMYKFVMSALATLVTAYLLLVLMLTVALTWCINRLMVRPLRRIARELNDLSQQERLGHQLTLPRLHHDDEIGMLVRSYNRNQQSLVRQHDELSIQSTRFPVSELPNKAFLLAMLEQTVARPQSAALIVVACETLQDAAGVLKESQREMLLLTLVEKLRAAIPPQMVLAQVSGYDFAILADGLAEPWQAVTLSKQVLTIINERLPLHGLQLRPYASVGIAMFHAGLSAEQFYRRAVSAAVTARRKGKNQIEFFDPEQMEKAQRRLMEEHDIMTALDNQQFAIWLQPQVACASGEICGAEVLLRQRQADGSWSLPPSLIERIESCGLIIPVGYWVMEEACRQLAAWQSQGIMLPLSVNVSLLQLLEHDRGEEMLKLIARYRIAPGTLILEVTESCRMDDPQDVMARLRPLREAGVQIALDDFGMGYAGLHQLQQMKALPVDILKIDKVFIDMLPEDVSMVPAMIQLARGLSLRIVAEGVENDAQRRWLQAAGVEVLQGHLFGCALPQEAFSARYLSPAREDVNL”, the protein production result is listed as “failed”.

On to “MAMVFCRGCAKEIHETALNCPQCGASQFPATPVKQLQENGSPWMAITSLVLGILCSLALFDDGEWDLETIVGLGMCSVAGLALGIVSINKKMPGYGIAIAGTVLSAVSLLVFFGLIVN”, for which the protein production result is listed as “failed”.

As for “MAMVVGVAMGNIALGAETVGQINEAYKTKPMLKKPLDECSMRYKTIVDVDVHTAIISIKGNPKFAEGAVVDAGVEASICEGGFTKGQSPLTSLTQRMEKICDVTRAIIRMLL”, the protein production result is “failed”.

Regarding “MANKNFSLTVYDSEYMETNNKIYQENMEKKIRTISEFPDKVLLKILSLLPSKDVVATGVLSKRWRSLWKDVKTFRTSSVESLQLKINPSATNKDIQSLVNMAVARSMRELRIEMICKNFELPKSFYMFSQLETVILDKVSLMDPPPDVHLPCLKRLHLLSVNSLTNVMIFTIDVPTLRILSIDNTSGKSRPKGVHGFVINTPSLSVNVVFDNPYKFLAPLGSTQYLSLCSVTSHTTYRPAVFSFIFLDHLELCLCSAEQWNLLTRILNYAPRLRVLQLKLYHKHCVKDTKNLMGNQPDLIPKSLSSHLEILEWRQYNDTAQEREAAKYILANASGLRKATFYTESTEKHGMLKEVRMCGQRFKNMSACVK”, the protein production entry is on record as “failed”.

In the case of “MANKNMRNTTTKVEALIESCRSEGKWHRVIELTDELKTGSPHNECLANFLVGEARLESYLEENALASDSNFGRAKSGLAEARRFLHLALGESGQKAGIALDAYLLLAKLCFACGEYEQSLDNFVKAELNTLAEKELTLRSLKILAESYAIKGLCLEQQTTKPSSKFKKAEKDTEMISCFERASDLGLLYLQEYDLVSGSSGSSNNSTAGSTLNVNASTVQPSSSSFAISSTIPASGPSGLEMNRRMGAILETALQRAPIVLIKTEKLQEAVERYRIMLNAIETRATQSLRLTLARQLAEVLLRGVSGTIYSPPFTGKSGGGTLRGGSSKKLWKPRKYAARQQFNPRNQQEEVILLLLIAEALAVRDTVLSQSPEFRQARQHAMGNVTAVYDLLTLATVRWGLVQLLNESFEKALKFSFGEQHVWRQYGLSLMAAEKHSHALRVLQESMKLTPSDPLPCLLASRLCYESLETVKQGLDYAQQALKREVKGLRPSRSQLFVGIGHQQLAIQSNLKSERDACHKLALDALERAVQFDGNDHLAEYYLSLQYALLGQLAEALVHIRFALALRMEHAPCLHLFALLLTSSRRPREALGVVEDALHEFPDNLQLLHVKAHLQLHLEDAETALGTVQHMLAVWRDVYEAQLAGEEEKHSDTKSGVHLAHSSQMSDKDSNSVYAASLAAVSRVEQALSEAASSLSSFTQRPGPRRPWMLQIEIWLLLADVYLRIDQPNEALNCIHEASQIYPLSHQIMFMRGQVHVYLEQWFDAKQCFLNAVAANPNHTEALRALGEAHLVLGEPRLAEKMLKDAAKLDPSCPKIWFALGKVMEILGDFHASADCFATSLQLEPSCPVLPFTSIPLVFE”, the protein production result is “failed”.

In the case of “MANKTKSKSLLEKMWRIKWWLLSIFTVLFLLFALFFPLNNYYVELPGGAFDTKEVLTVNKKADDSKGSYNFVAVAQTKATLALMLYTQFNDFAKLQTAEEATGNYSDEDFMRINQFYMETSQNQAVYQGLTLAGKEVSLEYMGVYVLQVADDSSFKGVLNIADTVTAVNGKTFDNSTDMIKYVQGLKLGSKVKVTYMRDGKEKTATGKIIKIANGKNGIGIGLTDHTEIKSPENVKFKLDGVGGPSAGLMFTLAIYDQVSGQDLKAGRKIAGTGTIEKDGAVGDIGGAYLKVKSAADSGADIFFVPNNLVTKEMKKADPDAKTNYQEAKEAAEKLGTKMKIVPVKTAQEAIDYLKKTK”, the protein production result was “failed”.

With “MANLKSLPVGDKAPEVVHMVIEVPRGSGNKYEYDPDLGAIKLDRVLPGAQFYPGDYGFIPSTLAEDGDPLDGLVLSTYPLLPGVVVEVRVVGLLLMEDEKGGDAKVIGVVAEDQRLDHIQDIGDVPEGVKQEIQHFFETYKALEAKKGKWVKVTGWRDRKAALEEVRACIARYKG”, the protein production entry is “not failed”.

For “MANLLSTCTSESGNIQHISPQNAGWEYVGFDVWQLKAGESITLPSDERERCLVLVAGLASVKAADSFFYRIGQRMSPFERIPAYSVYLPHHTEAKVTAETDLELAVCSAPGFGELPVRLISPQEVGVEHRGKGRNQRLVHNILPDSQLADSLLVVEVYTNAGATSSWPAHKHDTAVEGQETYLEETYYHRFNPPQGFCLQRVYTDDRSLDECMAVYNRDVVKVPKGYHPVATIAGYDNYYLNVMAGPLRKWRFTWEENHAWINSPDYPR”, the protein production result is recorded as “not failed”.

As for “MANRSHHNAGHRAMNALRKSGQKHSSESQLGSSEIGTTRHVYDVCDCLDTLAKLPDDSVQLIICDPPYNIMLADWDDHMDYIGWAKRWLAEAERVLSPTGSIAIFGGLQYQGEAGSGDLISIISHMRQNSKMLLANLIIWNYPNGMSAQRFFANRHEEIAWFAKTKKYFFDLDAVREPYDEETKAAYMKDKRLNPESVEKGRNPTNVWRMSRLNGNSLERVGHPTQKPAAVIERLVRALSHPGSTVLDFFAGSGVTARVAIQEGRNSICTDAAPVFKEYYQKQLTFLQDDGLIDKARSYEIVEGAANFGAALQRGDVAS”, the protein production entry is reported as “not failed”.

“MANTATDQRADTLMLVHVPADRKKTYAISLMRDLWIDIPGVGESKINAALAYGGVPLMVQTVESLLQQRIDHVAMIDFQGFKGLTDALGGVEVDVRIPFAPSSGPKAGQVYDAGKQTLNGDEALAFVRERKAFSDGDYQRVRNQQAYLKAIIGKVIARETLTNPVTISNMVSAVSPFVSVDKDFDAAAIGSLALSMKDVRAQDTVMFTLPTLGTGTSPDGQSIVLADTTAIADVTAALAKDQVDAYITAHALDKGFLEHHHHHH”: the protein production result is listed as “not failed”.

Consider “MANTYGGVIFLGIEEKPKGRFSVTGIAVPERVLKALWDGLNNRQRISINLLTDKMVEVIEIQGKQVIRIQVPRARRAQRPVYVGQNPLTGTYRRNYEGDYLCDEETIKRMLAEQVEEVRDARLLENYGFDDIEPNTLKAYRNQYDLTKALSALVRDGFLESGGIARGTFYFFPGEPPNAEADLVAQNYKFVEKSSPEDLLLGIIPKEIFDDLKPSSDDLKPSSDDLEPSSDDLEPSSDDWQSLMAIAVTIRNKGKVSTDIMEATILRLCQGRFLNHKQLQELLDRSYNTLRLGYLSKMHKKGQLELRYPDKLTHPNQGYRTKNSSSSDF”, for which the protein production entry is “failed”.
